The supplement of paper PMC7877785
± gives the uncertainty stated by the source.

Assay: self-splicing fitness, log relative to wild type (ln ratio); higher = more splicing; Tetrahymena group I intron in knt gene, E. coli kanamycin selection, DiMSum; sequences stand for … in CUCUCU…GGAGGGAAAAGUUAUCAGGCAUGCACCUGGUAGCUAGUCUUUAAACCAAUAGAUUGCAUCGGUUUAAAAGGCAAGACCGUCAAAUUGCGGGAAAGGGGUCAACAGCCGUUCAGUACCAAGUCUCAGGGGAAACUUUGAGAUGGCCUUGCAAAGGGUAUGGUAAUAAGCUGACGGACAUGGUCCUAACCACGCAGCCAAGUCCUAAGUCAACAGAUCUUCUGUUGAUAUGGAUGCAGUUCACAGACUAAAUGUCGGUCGGGGAAGAUGUAUUCUUCUCAUAAGAUAUAGUCGGACCUCUCCUUAAUGGGAGCUAGCGGAUGAAGUGAUGCAACACUGGAGCCGCUGGGAACUAAUUUGUAUGCGAAAGUAUAUUGAUUAGUUUUGGAGUACUCGUGGUCG
In short: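 Six replicate transformations of E. coli BL21(DE3) with a pET-22b(+) library were grown overnight at 37°C or 30°C. The library randomised all eight P1ex-region intron nucleotides, the intron lying in the knt kanamycin-resistance gene, and plates were LB agar with or without 25 μg/mL kanamycin plus 100 μg/mL carbenicillin, 50 μM IPTG and 0.2% rhamnose. Pooled colonies were amplicon-sequenced on an Illumina HiSeq 2500, and fitness is the DiMSum error-weighted combination of wild-type-normalised replicate fold changes, kanamycin versus none.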

Row | Sequence | self-splicing fitness (ln) (30 °C) | self-splicing fitness (ln) (37 °C)
1 | GCCCAGCAAUAUUACGAAAA | -1.7 ± 0.1 | -1.87 ± 0.12
2 | GCCCAGCAAUAUUACGAAAC | -1.34 ± 0.058 | -0.851 ± 0.078
3 | GCCCAGCAAUAUUACGAACU | -1.26 ± 0.14 | -1 ± 0.14
4 | GCCCAGCAAUAUUACGAAUA | -1.62 ± 0.1 | -1.19 ± 0.12
5 | GCCCAGCAAUAUUACGAAUC | -0.771 ± 0.083 | -0.457 ± 0.086
6 | GCCCAGCAAUAUUACGACCA | -1.44 ± 0.19 | -0.385 ± 0.23
7 | GCCCAGCAAUAUUACGACUA | -1.54 ± 0.1 | -0.508 ± 0.11
8 | GCCCAGCAAUAUUACGACUU | -1.45 ± 0.095 | -0.824 ± 0.1
9 | GCCCAGCAAUAUUACGAGGG | -4 ± 0.18 | -2.74 ± 0.21
10 | GCCCAGCAAUAUUACGAGUC | -0.477 ± 0.039 | -0.126 ± 0.059
11 | GCCCAGCAAUAUUACGAUAU | -1.54 ± 0.077 | -1.31 ± 0.1
12 | GCCCAGCAAUAUUACGCGGC | -4.94 ± 0.39 | -2.51 ± 0.24
13 | GCCCAGCAAUAUUACGCGUA | -0.753 ± 0.061 | -0.155 ± 0.064
14 | GCCCAGCAAUAUUACGGAUG | -2.15 ± 0.075 | -1.49 ± 0.092
15 | GCCCAGCAAUAUUACGGCAC | -1.45 ± 0.067 | -0.0437 ± 0.094
16 | GCCCAGCAAUAUUACGGCGG | -3.37 ± 0.16 | -1.93 ± 0.17
17 | GCCCAGCAAUAUUACGGGCA | -2.35 ± 0.2 | -2.69 ± 0.21
18 | GCCCAGCAAUAUUACGGGCU | -3.75 ± 0.16 | -2.81 ± 0.15
19 | GCCCAGCAAUAUUACGGUAA | -0.279 ± 0.06 | 0.44 ± 0.068
20 | GCCCAGCAAUAUUACGGUGU | -2.51 ± 0.067 | -1.27 ± 0.076
21 | GCCCAGCAAUAUUACGUACC | -1.05 ± 0.12 | 0.0161 ± 0.17
22 | GCCCAGCAAUAUUACGUAGA | -0.69 ± 0.052 | 0.0571 ± 0.064
23 | GCCCAGCAAUAUUACGUAUU | -2.02 ± 0.066 | -0.786 ± 0.074
24 | GCCCAGCAAUAUUACGUCCC | -1.49 ± 0.17 | 0.384 ± 0.17
25 | GCCCAGCAAUAUUACGUCGC | -1.66 ± 0.095 | -0.355 ± 0.092

Row | Sequence | self-splicing fitness (ln) (30 °C) | self-splicing fitness (ln) (37 °C)
26 | GCCCAGCAAUAUUACGUGAG | -0.944 ± 0.043 | -0.161 ± 0.056
27 | GCCCAGCAAUAUUACGUGCA | -1.47 ± 0.083 | -0.691 ± 0.083
28 | GCCCAGCAAUAUUACGUGCG | -3.42 ± 0.21 | -1.71 ± 0.17
29 | GCCGAGCAAUAUUACGAACC | -0.807 ± 0.22 | 0.455 ± 0.41
30 | GCCGAGCAAUAUUACGAAUA | – | -1.51 ± 0.47
31 | GCCGAGCAAUAUUACGACAC | -1.4 ± 0.12 | -0.338 ± 0.18
32 | GCCGAGCAAUAUUACGACAG | -1.9 ± 0.22 | -2.16 ± 0.23
33 | GCCGAGCAAUAUUACGACCU | -2.33 ± 0.3 | -1.54 ± 0.36
34 | GCCGAGCAAUAUUACGAGAU | -2.65 ± 0.19 | -1.66 ± 0.2
35 | GCCGAGCAAUAUUACGAUUG | -2.48 ± 0.41 | -2.24 ± 0.47
36 | GCCGAGCAAUAUUACGCACC | -1.96 ± 0.23 | -0.483 ± 0.21
37 | GCCGAGCAAUAUUACGCCUU | -3.44 ± 0.27 | -2 ± 0.36
38 | GCCGAGCAAUAUUACGCGAU | -2.66 ± 0.2 | -3.09 ± 0.37
39 | GCCGAGCAAUAUUACGCGCA | -1.42 ± 0.19 | -0.221 ± 0.14
40 | GCCGAGCAAUAUUACGCGGU | -3.47 ± 0.18 | -3.36 ± 0.42
41 | GCCGAGCAAUAUUACGCGUA | -0.983 ± 0.069 | -0.591 ± 0.066
42 | GCCGAGCAAUAUUACGCGUU | -1.62 ± 0.076 | -0.778 ± 0.095
43 | GCCGAGCAAUAUUACGCUGA | -1.88 ± 0.17 | -0.952 ± 0.13
44 | GCCGAGCAAUAUUACGGAUG | -1.38 ± 0.06 | -0.937 ± 0.072
45 | GCCGAGCAAUAUUACGGCCA | -1.6 ± 0.11 | -1.52 ± 0.12
46 | GCCGAGCAAUAUUACGGGAG | -3.67 ± 0.24 | -2.18 ± 0.24
47 | GCCGAGCAAUAUUACGGUGG | -3.52 ± 0.16 | -3.27 ± 0.23
48 | GCCGAGCAAUAUUACGUCGU | -0.646 ± 0.081 | -0.197 ± 0.1
49 | GCCGAGCAAUAUUACGUGAA | -1.74 ± 0.076 | -0.417 ± 0.092
50 | GCCUAGCAAUAUUACGAAGG | -3.05 ± 0.17 | -2.65 ± 0.3

Row | Sequence | self-splicing fitness (ln) (30 °C) | self-splicing fitness (ln) (37 °C)
51 | GCCUAGCAAUAUUACGACAC | -1.06 ± 0.21 | -0.38 ± 0.27
52 | GCCUAGCAAUAUUACGACAU | -2.109 ± 0.015 | -1.02 ± 0.033
53 | GCCUAGCAAUAUUACGAGCU | -1.03 ± 0.14 | -1.51 ± 0.14
54 | GCCUAGCAAUAUUACGAUAC | -2.39 ± 0.11 | -0.543 ± 0.1
55 | GCCUAGCAAUAUUACGCAAG | -3.71 ± 0.47 | –
56 | GCCUAGCAAUAUUACGCAGU | -1.77 ± 0.13 | -0.206 ± 0.12
57 | GCCUAGCAAUAUUACGCAUC | -0.219 ± 0.066 | 0.571 ± 0.091
58 | GCCUAGCAAUAUUACGCAUG | -4.28 ± 0.36 | -1.67 ± 0.15
59 | GCCUAGCAAUAUUACGCCCU | -0.974 ± 0.097 | 0.335 ± 0.13
60 | GCCUAGCAAUAUUACGCCGC | -2.48 ± 0.36 | -1.5 ± 0.34
61 | GCCUAGCAAUAUUACGCCGG | – | -3.09 ± 0.37
62 | GCCUAGCAAUAUUACGGAUA | -1.01 ± 0.17 | -0.705 ± 0.13
63 | GCCUAGCAAUAUUACGGCAC | -1.31 ± 0.17 | -0.195 ± 0.14
64 | GCCUAGCAAUAUUACGGCGG | -3.45 ± 0.24 | -2.44 ± 0.35
65 | GCCUAGCAAUAUUACGGCUU | -3.8 ± 0.22 | -1.08 ± 0.16
66 | GCCUAGCAAUAUUACGGGCC | -4.2 ± 0.26 | -3.41 ± 0.39
67 | GCCUAGCAAUAUUACGGUAC | -2.66 ± 0.15 | -0.822 ± 0.13
68 | GCCUAGCAAUAUUACGUGGC | -3.15 ± 0.32 | -1.6 ± 0.33
69 | GCCUAGCAAUAUUACGUUCC | -1.1 ± 0.17 | 0.341 ± 0.19
70 | GCGAAGCAAUAUUACGAAAG | -4.38 ± 0.4 | -1.14 ± 0.18
71 | GCGAAGCAAUAUUACGAGAG | -3.95 ± 0.34 | -1.91 ± 0.2
72 | GCGAAGCAAUAUUACGAGUU | -3.19 ± 0.2 | -2.16 ± 0.28
73 | GCGAAGCAAUAUUACGAUGU | -2.82 ± 0.15 | -1.42 ± 0.12
74 | GCGAAGCAAUAUUACGCCAA | – | -1.82 ± 0.39
75 | GCGAAGCAAUAUUACGCCGG | -1.91 ± 0.47 | -0.944 ± 0.47

Row | Sequence | self-splicing fitness (ln) (30 °C) | self-splicing fitness (ln) (37 °C)
76 | GCGAAGCAAUAUUACGCCUC | -2.7 ± 0.42 | –
77 | GCGAAGCAAUAUUACGCUUG | -1.45 ± 0.26 | -1.56 ± 0.35
78 | GCGAAGCAAUAUUACGGACA | -0.834 ± 0.13 | -0.85 ± 0.13
79 | GCGAAGCAAUAUUACGGAUU | -1.33 ± 0.13 | -1.17 ± 0.15
80 | GCGAAGCAAUAUUACGGUAC | -2.89 ± 0.17 | -1.2 ± 0.15
81 | GCGAAGCAAUAUUACGUAGU | -3.8 ± 0.34 | -2.13 ± 0.18
82 | GCGAAGCAAUAUUACGUAUC | -3.34 ± 0.3 | -0.83 ± 0.14
83 | GCGAAGCAAUAUUACGUCUU | -2.56 ± 0.15 | -2.06 ± 0.13
84 | GCGCAGCAAUAUUACGAAAU | -0.982 ± 0.075 | -0.192 ± 0.095
85 | GCGCAGCAAUAUUACGAACU | 0.116 ± 0.11 | 0.476 ± 0.13
86 | GCGCAGCAAUAUUACGAAGA | -1.64 ± 0.13 | -0.808 ± 0.12
87 | GCGCAGCAAUAUUACGACGU | -1.69 ± 0.091 | -1.13 ± 0.13
88 | GCGCAGCAAUAUUACGACUA | -0.643 ± 0.12 | 0.154 ± 0.11
89 | GCGCAGCAAUAUUACGAGAU | -1.85 ± 0.089 | -0.7 ± 0.11
90 | GCGCAGCAAUAUUACGAUAC | -1.4 ± 0.081 | -1.49 ± 0.11
91 | GCGCAGCAAUAUUACGCAUU | -1.4 ± 0.077 | -0.154 ± 0.1
92 | GCGCAGCAAUAUUACGCGCC | -3.43 ± 0.26 | -2.41 ± 0.39
93 | GCGCAGCAAUAUUACGCGCU | – | -1.41 ± 0.28
94 | GCGCAGCAAUAUUACGGCAC | -0.436 ± 0.11 | -0.634 ± 0.13
95 | GCGCAGCAAUAUUACGGCAG | -3.47 ± 0.15 | -2.85 ± 0.19
96 | GCGCAGCAAUAUUACGGCUA | -0.44 ± 0.092 | 0.0852 ± 0.097
97 | GCGCAGCAAUAUUACGGGUU | -1.71 ± 0.042 | -0.67 ± 0.053
